The text below walks through data of article PMC6886295, “The iron–sulfur‐containing HypC‐HypD scaffold complex of the [NiFe]‐hydrogenase maturation machinery is an ATPase” (FEBS Open Bio, 2019).

One may read the Km as the concentration of substrate that gives half-maximal velocity. What is called Vmax is the rate approached at saturating substrate.

The target of one data set is T1, HypD (Escherichia coli, UniProt P24192, C41A).
T1 construct: Strep-tagged HypD (plasmid pIBA5hypDWT), [4Fe-4S] protein, overproduced and anaerobically purified from E. coli BEF314 (delta hypB-E)
In words: HPLC (ZIC-HILIC) ADP formation, specific activity. It is filed as biochemical. The conditions noted are these: 50 mM HEPES, 2 mM MgCl2, pH 7.4, 37 °C, 500 μM ATP; protein alone.

Substrate in data set [1]: Nc1ncnc2c1ncn2[C@@H]1O[C@H](COP(=O)(O)OP(=O)(O)OP(=O)(O)O)[C@@H](O)[C@H]1O
In words: HPLC (ZIC-HILIC) ADP formation, Michaelis-Menten fit. The conditions noted are these: 50 mM HEPES, 2 mM MgCl2, pH 7.4, 37 °C, protein alone. It is filed as biochemical, Escherichia coli. The source says:
HPLC (ZIC-HILIC) ADP formation, Michaelis-Menten fit on HypC

Substrate in data set [2]: Nc1ncnc2c1ncn2[C@@H]1O[C@H](COP(=O)(O)OP(=O)(O)OP(=O)(O)O)[C@@H](O)[C@H]1O
Described as above. Format: biochemical, Escherichia coli. The conditions noted are these: 50 mM HEPES, 2 mM MgCl2, pH 7.4, 37 °C, as-isolated complex. The source says:
HPLC (ZIC-HILIC) ADP formation, Michaelis-Menten fit on HypC-HypD complex

Substrate in data set [3]: Nc1ncnc2c1ncn2[C@@H]1O[C@H](COP(=O)(O)OP(=O)(O)OP(=O)(O)O)[C@@H](O)[C@H]1O
Described as above. The conditions noted are these: 50 mM HEPES, 2 mM MgCl2, pH 7.4, 37 °C, protein alone. Format: biochemical, Escherichia coli. An excerpt:
HPLC (ZIC-HILIC) ADP formation, Michaelis-Menten fit on HypD
This is another data set of the same source.

Substrate in data set [4]: Nc1ncnc2c1ncn2[C@@H]1O[C@H](COP(=O)(O)OP(=O)(O)OP(=O)(O)O)[C@@H](O)[C@H]1O
The description is as above. Format: biochemical, Escherichia coli. As to conditions: 50 mM HEPES, 2 mM MgCl2, pH 7.4, 37 °C, as-isolated complex. The source says: HPLC (ZIC-HILIC) ADP formation, Michaelis-Menten fit on HybG-HypD complex
The source holds these as a separate data set.

Substrate in data set [5]: Nc1ncnc2c1ncn2[C@@H]1O[C@H](COP(=O)(O)OP(=O)(O)OP(=O)(O)O)[C@@H](O)[C@H]1O
Described as above. It is filed as biochemical, Escherichia coli. As to conditions: 50 mM HEPES, 2 mM MgCl2, pH 7.4, 37 °C, protein alone. An excerpt:
HPLC (ZIC-HILIC) ADP formation, Michaelis-Menten fit on HybG
The source holds these as a separate data set.

T1 sequence (P24192 whole entry C41A): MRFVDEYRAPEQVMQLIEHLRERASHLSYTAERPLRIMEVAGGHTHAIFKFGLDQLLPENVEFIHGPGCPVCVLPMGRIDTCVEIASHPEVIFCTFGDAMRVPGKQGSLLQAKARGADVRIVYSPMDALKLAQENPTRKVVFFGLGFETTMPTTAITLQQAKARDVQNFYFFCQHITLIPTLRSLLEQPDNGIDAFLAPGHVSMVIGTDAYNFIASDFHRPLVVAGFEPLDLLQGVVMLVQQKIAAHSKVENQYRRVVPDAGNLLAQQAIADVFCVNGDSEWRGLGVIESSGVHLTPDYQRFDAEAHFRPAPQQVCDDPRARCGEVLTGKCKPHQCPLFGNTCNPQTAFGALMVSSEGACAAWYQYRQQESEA

Consider `Nc1ncnc2c1ncn2[C@@H]1O[C@H](COP(=O)(O)OP(=O)(O)OP(=O)(O)O)[C@@H](O)[C@H]1O` [ATP], for which the “HPLC (ZIC-HILIC) ADP formation, specific activity” value at HypD is reported as “The HypDC41A variant on its own had an ATPase activity”.

B1: HypC (Escherichia coli K-12) (protein)
chain: CIGVPGQIRTIDGNQAKVDVCGIQRDVDLTLVGSCDENGQPRVGQWVLVHVGFAMSVINEAEARDTLDALQNMFDVEPDVGALLYGEEK
notes: Strep-tagged HypC (plasmid pIBA3hypCStrep), anaerobically purified from E. coli BEF314 (delta hypB-E)
B1: in data set [1], the Km was determined as 235.72 ± 71.15 µM and the Vmax came out at 0.234 µmol/min/mg.

B2: HypC-HypD complex (Escherichia coli K-12) (protein)
chain 1: MRFVDEYRAPEQVMQLIEHLRERASHLSYTAERPLRIMEVCGGHTHAIFKFGLDQLLPENVEFIHGPGCPVCVLPMGRIDTCVEIASHPEVIFCTFGDAMRVPGKQGSLLQAKARGADVRIVYSPMDALKLAQENPTRKVVFFGLGFETTMPTTAITLQQAKARDVQNFYFFCQHITLIPTLRSLLEQPDNGIDAFLAPGHVSMVIGTDAYNFIASDFHRPLVVAGFEPLDLLQGVVMLVQQKIAAHSKVENQYRRVVPDAGNLLAQQAIADVFCVNGDSEWRGLGVIESSGVHLTPDYQRFDAEAHFRPAPQQVCDDPRARCGEVLTGKCKPHQCPLFGNTCNPQTAFGALMVSSEGACAAWYQYRQQESEA
chain 2: CIGVPGQIRTIDGNQAKVDVCGIQRDVDLTLVGSCDENGQPRVGQWVLVHVGFAMSVINEAEARDTLDALQNMFDVEPDVGALLYGEEK
notes: heterodimer, HypC Strep-tagged (pT7-7hypD-hypCStrep), anaerobically co-purified from E. coli MC4100 or BEF314
For the molecule B2, in data set [2], the Km amounted to 143.48 ± 55.10 µM and the Vmax came to 0.995 µmol/min/mg.

B3: HypD (Escherichia coli K-12) (protein)
chain: MRFVDEYRAPEQVMQLIEHLRERASHLSYTAERPLRIMEVCGGHTHAIFKFGLDQLLPENVEFIHGPGCPVCVLPMGRIDTCVEIASHPEVIFCTFGDAMRVPGKQGSLLQAKARGADVRIVYSPMDALKLAQENPTRKVVFFGLGFETTMPTTAITLQQAKARDVQNFYFFCQHITLIPTLRSLLEQPDNGIDAFLAPGHVSMVIGTDAYNFIASDFHRPLVVAGFEPLDLLQGVVMLVQQKIAAHSKVENQYRRVVPDAGNLLAQQAIADVFCVNGDSEWRGLGVIESSGVHLTPDYQRFDAEAHFRPAPQQVCDDPRARCGEVLTGKCKPHQCPLFGNTCNPQTAFGALMVSSEGACAAWYQYRQQESEA
notes: Strep-tagged HypD (plasmid pIBA5hypDWT), [4Fe-4S] protein, overproduced and anaerobically purified from E. coli BEF314 (delta hypB-E)
As to B3, in data set [3], the Km is 364.48 ± 100.16 µM and the Vmax came to 0.398 µmol/min/mg.

B4: HybG-HypD complex (Escherichia coli K-12) (protein)
chain 1: MRFVDEYRAPEQVMQLIEHLRERASHLSYTAERPLRIMEVCGGHTHAIFKFGLDQLLPENVEFIHGPGCPVCVLPMGRIDTCVEIASHPEVIFCTFGDAMRVPGKQGSLLQAKARGADVRIVYSPMDALKLAQENPTRKVVFFGLGFETTMPTTAITLQQAKARDVQNFYFFCQHITLIPTLRSLLEQPDNGIDAFLAPGHVSMVIGTDAYNFIASDFHRPLVVAGFEPLDLLQGVVMLVQQKIAAHSKVENQYRRVVPDAGNLLAQQAIADVFCVNGDSEWRGLGVIESSGVHLTPDYQRFDAEAHFRPAPQQVCDDPRARCGEVLTGKCKPHQCPLFGNTCNPQTAFGALMVSSEGACAAWYQYRQQESEA
chain 2: MCIGVPGQVLAVGEDIHQLAQVEVCGIKRDVNIALICEGNPADLLGQWVLVHVGFAMSIIDEDEAKATLDALRQMDYDITSA
notes: heterodimer, HybG Strep-tagged (hypDEFhybGStrep plasmid), anaerobically co-purified from E. coli MC4100; small amounts of HypE occasionally co-purify
With B4, in data set [4], the Km is 34.78 ± 8.77 µM and the Vmax is 1.42 µmol/min/mg.

B5: HybG (Escherichia coli K-12) (protein)
chain: MCIGVPGQVLAVGEDIHQLAQVEVCGIKRDVNIALICEGNPADLLGQWVLVHVGFAMSIIDEDEAKATLDALRQMDYDITSA
notes: Strep-tagged HybG (plasmid pIBA3hybGWT), anaerobically purified from E. coli BEF314 (delta hypB-E)
Take B5: in data set [5], the Km came out at 475.67 ± 29.91 µM and the Vmax turned out to be 0.56 µmol/min/mg.
